Our source for the stoichiometry N values is publication PMC10772716.

Common to all, as to experiment: SEC-MALS
The target in assay [1] is cMyBP-C C3C6 domains, E542Q variant (human) (UniProt Q14896).
In assay [2] the target is cMyBP-C C3C6 domains, N755K variant (human) (UniProt Q14896).
The target in assay [3] is cMyBP-C C3C6 domains, R820Q variant (human) (UniProt Q14896).

Broadly, the stoichiometry N is a count of units in the complex or per binding partner. As to “cMyBP-C C3C6 domains, E542Q variant (from UniProt Q14896 1-1274) (domain or fragment)”, the stoichiometry N in assay [1] is 2.
“cMyBP-C C3C6 domains, N755K variant (from UniProt Q14896 1-1274) (domain or fragment)” came in with a stoichiometry N in assay [2] of 2.
In turn, “cMyBP-C C3C6 domains, R820Q variant (from UniProt Q14896 1-1274) (domain or fragment)” yielded a stoichiometry N in assay [3] of 2.
